Experiment [1] concerns the target T1, bovine Gβ1γ1 dimer (β1γ1 subunits of the visual G protein Gt, transducin) (bovine, UniProt P62871;P02698).
The target of experiment [2] is T2, Venus-Gβ3γ2 (Venus 156-239-Gβ3 + Venus 1-155-Gγ2) (UniProt P16520;P59768).
T2 construct: G protein beta subunit subtype 3, GenBank M31328; G protein gamma subunit 2; also called Venus-Gβγ; Gβ3 + Gγ2 pair; source: HEK293T/17, transfected, in living cells; not shown: Venus 156-239 (with GGSGGG linker), N-terminal, kept
As to the kind of experiment: FRET or BRET; BRET between Venus-Gβγ and masGRK3ct-Nluc-HA in living HEK293T/17 cells, room temperature; GαoA, Nb5-Flag or Nb17-Flag co-transfected as competitor (plasmid ratio GαoA:Gβ:Gγ2:masGRK3ct:nanobody 2:1:1:1:12). The conditions noted are these: partners not purified.

Experiment [3] addresses T3, Venus-Gβ2γ2 (Venus 156-239-Gβ2 + Venus 1-155-Gγ2) (UniProt P62879;P59768).
T3 construct: G protein beta subunit subtype 2, GenBank AF501883; G protein gamma subunit 2; also called Venus-Gβγ; Gβ2 + Gγ2 pair; source: HEK293T/17, transfected, in living cells; not shown: Venus 156-239 (with GGSGGG linker), N-terminal, kept
Described as above. As to conditions: partners not purified.

For experiment [4], the target named is T4, Venus-Gβ4γ2 (Venus 156-239-Gβ4 + Venus 1-155-Gγ2) (UniProt Q9HAV0;P59768).
T4 construct: G protein beta subunit subtype 4, GenBank AF300648; G protein gamma subunit 2; also called Venus-Gβγ; Gβ4 + Gγ2 pair; source: HEK293T/17, transfected, in living cells; not shown: Venus 156-239 (with GGSGGG linker), N-terminal, kept
The experiment is described as above. The conditions noted are these: partners not purified.

Experiment [5] deals with T5, Venus-Gβ1γ2 (Venus 156-239-Gβ1 + Venus 1-155-Gγ2) (UniProt P62873;P59768).
T5 construct: G protein beta subunit subtype 1; G protein gamma subunit 2; also called Venus-Gβγ; source: HEK293T/17, transfected, in living cells
The experiment is described as above. The conditions noted are these: partners not purified.

Experiment [6] has as its target T1, bovine Gβ1γ1 dimer (β1γ1 subunits of …). As to the kind of experiment: SPR; same set-up as a5; affinity based (equilibrium) analysis. The conditions noted are these: both partners purified. (In general: In SPR one partner is held on a chip, and binding of the other changes the refractive index at the surface.)
The target is the same in experiment [7]. As to the kind of experiment: SPR; Biacore T100, 25 °C; Nb5 amine-coupled on CM5 (400-500 RU); Gβ1γ1 0.6-312 nM in 10 mM HEPES pH 7.5, 150 mM NaCl, 1 mM TCEP, 0.1% Tween-20; single-cycle kinetics, 1:1 Langmuir fit. As to conditions: both partners purified.
For experiment [8], the target named is T6, mouse Gβ1 subtype from brain (mouse (endogenous in C57BL/6J brain), UniProt P62874).
T6 construct: G protein beta subunit subtype 1, mouse brain; Extracted as Gβγ; the Gγ partner is not identified; source: endogenous, C57BL/6J mouse brain membranes, cholate-solubilized and partially purified (DEAE Sepharose)
Description: affinity purification with mass spectrometry; cholate-solubilized, DEAE-purified C57BL/6J mouse brain extract with a two molar excess of His-tagged Nb5, Ni2+-NTA then Talon resin; Gβ gel band digested in gel, LC-MS/MS. The conditions noted are these: one partner purified.

The target of experiment [9] is T7, mouse Gβ3 subtype from brain (mouse (endogenous in C57BL/6J brain), UniProt Q61011).
T7 construct: G protein beta subunit subtype 3, mouse brain; Extracted as Gβγ; the Gγ partner is not identified; source: endogenous, C57BL/6J mouse brain membranes, cholate-solubilized and partially purified (DEAE Sepharose)
The description is as above. As to conditions: one partner purified.

Experiment [10] deals with T8, mouse Gβ4 subtype from brain (mouse (endogenous in C57BL/6J brain), UniProt P29387).
T8 construct: G protein beta subunit subtype 4, mouse brain; Extracted as Gβγ; the Gγ partner is not identified; source: endogenous, C57BL/6J mouse brain membranes, cholate-solubilized and partially purified (DEAE Sepharose)
Described as above. As to conditions: one partner purified.

For experiment [11], the target named is T9, mouse Gβ2 subtype from brain (mouse (endogenous in C57BL/6J brain), UniProt P62880).
T9 construct: G protein beta subunit subtype 2, mouse brain; Extracted as Gβγ; the Gγ partner is not identified; source: endogenous, C57BL/6J mouse brain membranes, cholate-solubilized and partially purified (DEAE Sepharose)
The experiment is described as above. As to conditions: one partner purified.

The record followed here is article PMC5959942, “Targeting G protein-coupled receptor signaling at the G protein level with a selective nanobody inhibitor” (Nature Communications, 2018).

B1: Nb6 (VHH)
VHH: QVQLVESGGGLVQAGGSLRLSCAASGSIFSINAMNWYRQAPGKRRELVAAITNGGSTNYADSVKGRFTISRDNAKNTVYLQMNSLKPEDTAVYYCNVGRSRGYWGQGTQVTVSS
On to B1, for which the binding result in experiment [1] is “binds”.

B2: Nb7 (VHH)
VHH: QVQLVESGGGLVQAGESLRLSCAASGNIFSINATNWYRQAPGKQRELVAGITTRGSTNYADSVKGRFTISRDNAKNTVYLQMNSLKPEDTAVYYCNVGRSRGYWGQGTQVTVSS
Turning to B2, in [1], the binding result was “binds”.

B3: Nb5-Flag (Nb5 with the 6 × His-tag replaced by the FLAG-tag) (VHH)
VHH: QVQLVESGGGLVQAGGSLRLSCAASGSIFSINAMGWYRQAPGKQRELVAAITRGGRTNYADSVKGRFTLSRDNAKNTVYLQMNSLKPEDTAVYYCNVGRSRGYWGQGTQVTVSS
notes: source: HEK293T/17, transfected, in living cells; CHO-APJ cells, transiently transfected (pcDNA3.1(+)); not shown: FLAG, C-terminal, kept
Take B3: the binding result in experiment [2], in experiment [3], in experiment [4] and in [5] was “binds” each time.

B4: Nb5 (llama-derived nanobody against the Gβ1γ1 dimer), C-terminal His-tag (VHH)
VHH: QVQLVESGGGLVQAGGSLRLSCAASGSIFSINAMGWYRQAPGKQRELVAAITRGGRTNYADSVKGRFTLSRDNAKNTVYLQMNSLKPEDTAVYYCNVGRSRGYWGQGTQVTVSS
notes: Selected from a library in the phage display vector pMESy4; not shown: His6, C-terminal, kept
A word on the Kd: it is the free concentration of one partner at which half of the binding sites on the other are occupied at equilibrium, for simple one-to-one binding. A low value points to higher affinity. As usually defined, the koff is a measure of how fast the partners let go of each other. Read a high koff as fast dissociation. A word on the kon: it is the rate constant with which the complex forms. With B4, the Kd worked out at 53 nM in experiment [6] and 43 nM in [7]. For the same molecule, the koff in experiment [7] amounted to 0.019 s⁻¹. Moreover, the kon in experiment [7] turned out to be 440000 M⁻¹ s⁻¹. The binding result in experiment [8], in [9], in [10] and in experiment [11] was “binds” throughout.
